Positions count from the first letter of the chain named. Names may count otherwise. “And” between values parts separate entries of the source, which are not always exact repeats. Equal entries are not always repeated.
T1: StrepII-CERTL^P (hyperphosphorylated human CERTL) (human, UniProt Q9Y5P4-1 1-624, hyperphosphorylated (CERTL^P); sites not given)
T1 construct: ceramide transport protein CERT, longer cytoplasmic isoform CERTL (with exon 11), human, UniProt Q9Y5P4-1; not shown: StrepII, N-terminal, kept
T1 sequence (looked up): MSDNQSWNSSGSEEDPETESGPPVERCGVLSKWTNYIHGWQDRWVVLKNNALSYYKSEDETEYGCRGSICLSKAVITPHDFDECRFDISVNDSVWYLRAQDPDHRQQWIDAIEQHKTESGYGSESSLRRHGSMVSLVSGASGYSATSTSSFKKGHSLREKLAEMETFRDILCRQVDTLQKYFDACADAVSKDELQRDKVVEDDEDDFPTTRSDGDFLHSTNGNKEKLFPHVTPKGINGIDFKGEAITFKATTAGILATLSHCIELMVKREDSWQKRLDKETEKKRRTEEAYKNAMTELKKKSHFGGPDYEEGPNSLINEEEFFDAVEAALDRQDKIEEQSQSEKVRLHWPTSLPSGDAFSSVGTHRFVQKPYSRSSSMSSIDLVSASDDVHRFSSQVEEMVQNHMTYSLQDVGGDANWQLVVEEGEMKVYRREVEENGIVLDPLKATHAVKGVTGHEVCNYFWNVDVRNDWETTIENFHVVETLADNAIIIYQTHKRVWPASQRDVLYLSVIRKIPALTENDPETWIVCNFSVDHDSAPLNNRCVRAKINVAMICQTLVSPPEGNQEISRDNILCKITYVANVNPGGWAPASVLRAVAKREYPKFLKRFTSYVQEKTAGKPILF

T2: StrepII-CERTL^S132A (constitutively hypophosphorylated human CERTL) (human, UniProt Q9Y5P4-1 1-624, S132A)
T2 construct: ceramide transport protein CERT, longer cytoplasmic isoform CERTL, human, UniProt Q9Y5P4-1, with S132A; source: Freestyle 293F cells, stably transfected, doxycycline-induced, purified (StrepTrap, SEC); not shown: StrepII, N-terminal, kept
T2 sequence (looked up): T1 sequence (looked up) with S132A

T3: pUL21-H6 (herpes simplex virus 1 (HSV-1), UniProt F8RG07 1-535)
T3 construct: HSV-1 pUL21, UniProt F8RG07; some paragraphs print H6-pUL21; also called H6-pUL21; WT pUL21; source: E. coli T7 Express lysY/Iq, purified (Ni-NTA, SEC); not shown: His6, C-terminal, kept
T3 sequence: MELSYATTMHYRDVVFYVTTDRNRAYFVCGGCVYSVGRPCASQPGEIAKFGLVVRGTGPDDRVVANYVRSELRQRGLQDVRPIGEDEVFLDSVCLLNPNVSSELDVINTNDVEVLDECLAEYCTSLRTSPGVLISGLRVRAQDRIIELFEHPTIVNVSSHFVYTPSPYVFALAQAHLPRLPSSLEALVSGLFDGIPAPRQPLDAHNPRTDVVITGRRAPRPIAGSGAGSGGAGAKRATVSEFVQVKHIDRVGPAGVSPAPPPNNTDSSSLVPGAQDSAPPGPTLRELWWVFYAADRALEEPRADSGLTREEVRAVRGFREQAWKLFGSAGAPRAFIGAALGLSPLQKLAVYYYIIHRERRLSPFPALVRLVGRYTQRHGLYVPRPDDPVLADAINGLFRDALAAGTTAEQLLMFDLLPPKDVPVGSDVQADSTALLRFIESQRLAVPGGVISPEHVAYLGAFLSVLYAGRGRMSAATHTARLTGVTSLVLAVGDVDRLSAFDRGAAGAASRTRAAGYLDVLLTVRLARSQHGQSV

T4: H6-miniCERTL (human, UniProt Q9Y5P4-1 20-624, residues 20–131 plus 351–624 (MR residues 132 to 350 excluded))
T4 construct: human CERTL, UniProt Q9Y5P4-1, residues 20-131 plus 351-624 (PH and STARTL domains joined by a retained 23 amino acid stretch of the middle region); Cloned into pOPTH; Monomer by SEC-MALS; source: E. coli T7 Express lysY/Iq, purified (Ni-NTA, SEC); not shown: MAH6, N-terminal, kept
T4 sequence (looked up): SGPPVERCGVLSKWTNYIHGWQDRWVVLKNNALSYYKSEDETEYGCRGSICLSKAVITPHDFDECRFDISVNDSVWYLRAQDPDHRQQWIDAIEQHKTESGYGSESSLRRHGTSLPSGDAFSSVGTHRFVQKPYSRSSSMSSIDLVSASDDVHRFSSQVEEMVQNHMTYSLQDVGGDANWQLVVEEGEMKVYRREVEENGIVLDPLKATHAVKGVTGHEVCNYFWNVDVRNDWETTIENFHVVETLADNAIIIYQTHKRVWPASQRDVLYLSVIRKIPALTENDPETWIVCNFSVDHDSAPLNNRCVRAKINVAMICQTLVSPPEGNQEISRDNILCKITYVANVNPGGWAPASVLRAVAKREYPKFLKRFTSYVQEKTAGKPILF

B1: pUL21-H6 (HSV-1 pUL21) (natural protein)
chain: T3 sequence
notes: tegument protein pUL21 of herpes simplex virus 1, UniProt F8RG07; source: E. coli T7 Express lysY/Iq, purified (Ni-NTA, SEC); not shown: His6, C-terminal, kept
B2: StrepII-CERTL^P (hyperphosphorylated StrepII-tagged CERTL) (natural protein, human, UniProt Q9Y5P4-1 1-624, looked up)
chain: T1 sequence (looked up)
modifications: hyperphosphorylated (sites not given)
notes: human CERTL, UniProt Q9Y5P4-1, synthetic gene; Trimer by SEC-MALS (observed 184.3 kDa, expected 215.7 kDa); not shown: StrepII, N-terminal, kept
B3: StrepII-CERTL^S132A (natural protein, human, UniProt Q9Y5P4-1 1-624, looked up)
chain: T1 sequence (looked up) with S132A
modifications: hypophosphorylated
notes: human CERTL, UniProt Q9Y5P4-1, synthetic gene, S132A; Trimer by SEC-MALS (observed 199.2 kDa); also called constitutively hypophosphorylated form of CERTL; source: Freestyle 293F, stably transfected, doxycycline-induced, purified (StrepTrap HP, Superose 6 SEC); not shown: StrepII, N-terminal, kept
B4: H6-pUL21C (domain or fragment)
chain: QDSAPPGPTLRELWWVFYAADRALEEPRADSGLTREEVRAVRGFREQAWKLFGSAGAPRAFIGAALGLSPLQKLAVYYYIIHRERRLSPFPALVRLVGRYTQRHGLYVPRPDDPVLADAINGLFRDALAAGTTAEQLLMFDLLPPKDVPVGSDVQADSTALLRFIESQRLAVPGGVISPEHVAYLGAFLSVLYAGRGRMSAATHTARLTGVTSLVLAVGDVDRLSAFDRGAAGAASRTRAAGYLDVLLTVRLARSQHGQSV
notes: HSV-1 pUL21 C-terminal domain, amino acids 275-535, UniProt F8RG07; Cloned in pOPTH; Monomer by SEC-MALS and SAXS; also called C-terminal domain of pUL21; source: E. coli T7 Express lysY/Iq, purified (Ni-NTA, SEC); not shown: MAH6, N-terminal, kept

Tests used:
[1] = molecular target: CERTL (CERT, long isoform) (UniProt Q9Y5P4); assay: SEC-MALS of self-association; conditions: reference: wild-type CERTL, hyperphosphorylated (CERTLP); sites S132
[2] = molecular target: T1, StrepII-CERTL^P (hyperphosphorylated …); assay: ITC; CERTL forms in the syringe titrated into pUL21 forms in the cell; 25 °C; 20 mM Tris pH 8.5, 500 mM NaCl, 0.5 mM TCEP; one-site binding model; single titrations; conditions: both partners purified
[3] = molecular target: T2, StrepII-CERTL^S132A (constitutively …); assay: as above; conditions: both partners purified
[4] = molecular target: the molecule itself; assay: SEC-MALS; Superose 6 increase 10/300 GL; 20 mM Tris pH 8.5, 500 mM NaCl, 0.5 mM TCEP; samples injected at 2 mg/ml
pUL21-H6 = molecular target: T3, pUL21-H6; assay: ITC; 25 °C; 20 mM Tris pH 8.5, 500 mM NaCl, 0.5 mM TCEP; CERTL forms in the syringe titrated into pUL21 forms in the cell; one-site binding model; conditions: both partners purified
H6-miniCERTL = molecular target: T4, H6-miniCERTL; assay: as above; conditions: both partners purified

Molecule | stoichiometry N [4] | dH (pUL21-H6) [kcal/mol] | stoichiometry N (pUL21-H6) | also measured
CERTL (CERT, long isoform) (from UniProt Q9Y5P4) CERTL S132A (hypophosphorylated) | – | – | – | other: observed mass (expected trimer 215.7) [1]: same; reference 184.3
B1 | – | – | – | Kd [2]: 1080 nM and 554 nM and 684 nM; Kd [3]: 460 nM and 824 nM
B2 | ~3 | 3.89 | 0.74 | –
B3 | ~3 | 2.38 | 0.97 | –
B4 | – | – | – | Kd (H6-miniCERTL): 4320 nM
